{"source": "IntAct's records for PubMed 30518913", "parents": {"B1": {"name": "UbiA prenyltransferase domain-containing protein 1 (Homo sapiens), Q9Y5Z9 (parent)", "chain": "MAASQVLGEKINILSGETVKAGDRDPLGNDCPEQDRLPQRSWRQKCASYVLALRPWSFSASLTPVALGSALAYRSHGVLDPRLLVGCAVAVLAVHGAGNLVNTYYDFSKGIDHKKSDDRTLVDRILEPQDVVRFGVFLYTLGCVCAACLYYLSPLKLEHLALIYFGGLSGSFLYTGGIGFKYVALGDLIILITFGPLAVMFAYAIQVGSLAIFPLVYAIPLALSTEAILHSNNTRDMESDREAGIVTLAILIGPTFSYILYNTLLFLPYLVFSILATHCTISLALPLLTIPMAFSLERQFRSQAFNKLPQRTAKLNLLLGLFYVFGIILAPAGSLPKI"}}, "data": [{"variants_of": "B1", "settings": "with rash_human HRAS", "values": [{"variant": "MAASQVLGEKINILSGETVKAGDRDPLGNDCPEQDRLPQRSWRQKCASYVLALRPWSFSASLTPVALGSALAYRSHGVLDPRLLVGCAVAVLAVHGAGNLVSTYYDFSKGIDHKKSDDRTLVDRILEPQDVVRFGVFLYTLGCVCAACLYYLSPLKLEHLALIYFGGLSGSFLYTGGIGFKYVALGDLIILITFGPLAVMFAYAIQVGSLAIFPLVYAIPLALSTEAILHSNNTRDMESDREAGIVTLAILIGPTFSYILYNTLLFLPYLVFSILATHCTISLALPLLTIPMAFSLERQFRSQAFNKLPQRTAKLNLLLGLFYVFGIILAPAGSLPKI", "note": "[N102S]", "effect of a mutation on the interaction": "disrupting interaction"}, {"variant": "MAASQVLGEKINILSGETVKAGDRDPLGNDCPEQDRLPQRSWRQKCASYVLALAAAAFSASLTPVALGSALAYRSHGVLDPRLLVGCAVAVLAVHGAGNLVNTYYDFSKGIDHKKSDDRTLVDRILEPQDVVRFGVFLYTLGCVCAACLYYLSPLKLEHLALIYFGGLSGSFLYTGGIGFKYVALGDLIILITFGPLAVMFAYAIQVGSLAIFPLVYAIPLALSTEAILHSNNTRDMESDREAGIVTLAILIGPTFSYILYNTLLFLPYLVFSILATHCTISLALPLLTIPMAFSLERQFRSQAFNKLPQRTAKLNLLLGLFYVFGIILAPAGSLPKI", "note": "[R54A;P55A;W56A;S57A]", "effect of a mutation on the interaction": "disrupting interaction"}]}]}
